Read-outs that look alike come from different tables or passages of the source.
Experiments:
Assay in all cases: EMSA
[1] = biological target: T1, *VLF-1 (HAHIS-VLF-1, very late expression factor 1) (Autographa californica multiple capsid …, UniProt Q06687 1-379)
T1 sequence: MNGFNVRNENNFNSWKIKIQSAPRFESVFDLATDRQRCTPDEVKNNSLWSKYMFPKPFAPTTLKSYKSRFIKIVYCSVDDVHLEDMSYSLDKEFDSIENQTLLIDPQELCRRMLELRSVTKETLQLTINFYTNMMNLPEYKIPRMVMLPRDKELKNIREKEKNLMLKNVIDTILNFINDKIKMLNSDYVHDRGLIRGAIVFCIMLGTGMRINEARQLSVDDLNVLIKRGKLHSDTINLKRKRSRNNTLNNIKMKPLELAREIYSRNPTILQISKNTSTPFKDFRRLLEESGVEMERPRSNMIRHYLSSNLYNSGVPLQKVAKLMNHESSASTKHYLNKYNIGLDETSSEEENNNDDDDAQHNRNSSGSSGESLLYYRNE

[2] = biological target: T1, *VLF-1 (HAHIS-VLF-1, very late …); remark: listed apart in the source
[3] = biological target: T1, *VLF-1 (HAHIS-VLF-1, very late …); remark: listed apart in the source
[4] = biological target: T1, *VLF-1 (HAHIS-VLF-1, very late …); remark: listed apart in the source

B1: substrate I, linear single-stranded DNA (4X12-2) (ssDNA)
DNA: TGGGTGAACCTGCAGGTGGGCAAAGATGTCCTAGCAATGTAATCGTCAAGCTTTATGCCGTT
B1: no binding [1].

B2: substrate II, linear double-stranded DNA (4X12-2/4X12-5) (dsDNA)
DNA 1: TGGGTGAACCTGCAGGTGGGCAAAGATGTCCTAGCAATGTAATCGTCAAGCTTTATGCCGTT
DNA 2: AACGGCATAAAGCTTGACGATTACATTGCTAGGACATCTTTGCCCACCTGCAGGTTCACCCA
B2: no binding [1].

B3: substrate IV, three-way junction (4X12-2/4X12-1/4X12-3) (structured_DNA)
DNA 1: TGGGTGAACCTGCAGGTGGGCAAAGATGTCCTAGCAATGTAATCGTCAAGCTTTATGCCGTT
DNA 2: GACGCTGCCGAATTCTACCAGTGCCTTGCTAGGACATCTTTGCCCACCTGCAGGTTCACCC
DNA 3: CAACGGCATAAAGCTTGACGATTACATTGCTAGGACATGCTGTCTAGAGGATCCGACTATCGA
B3: binds [2].

B4: substrate V, cruciform (4X12-2/4X12-1/4X12-3/4X12-4a) (structured_DNA)
DNA 1: TGGGTGAACCTGCAGGTGGGCAAAGATGTCCTAGCAATGTAATCGTCAAGCTTTATGCCGTT
DNA 2: GACGCTGCCGAATTCTACCAGTGCCTTGCTAGGACATCTTTGCCCACCTGCAGGTTCACCC
DNA 3: CAACGGCATAAAGCTTGACGATTACATTGCTAGGACATGCTGTCTAGAGGATCCGACTATCGA
DNA 4: ATCGATAGTCGGATCCTCTAGACAGCATGTCCTAGCAAGGCACTGGTAGAATTCGGCAGCGT
B4: binds [3].

B5: substrate VII, hairpin hr DNA (v-hr1/v-hr3) (structured_DNA)
DNA 1: GGGGTTTGTTTTTCAAAACTAAACTCGCTTTACGAGTAGAATTCTACTTGTAACGCACAATCAAGGGATGATGTCAGGGG
DNA 2: CCCCTGACATCATCCCTTGATTGTGAGTTTAGTTTTGAAAAACAAACCCC
B5: binds [4].
